Source: US6451571B1, “Thymidine kinase mutants” (University of Washington, priority 1994, dated 2002)
Read-outs that look alike come from different tables or passages of the source.

Columns and labels:
ts13 BHK tk− cells = test: ED50 determination with GCV or ACV in transfected BHK tk− cells (Alamar Blue); assay type: cell-based, baby hamster; conditions: pooled G418-resistant transfectants, 4 days on nucleoside analog
Experimental: Briefly, the cell transfections are performed as follows. Approximately 5×10^5 ts13 BHK tk^− cells (ATCC CRL-1632) are plated on 100 mm dishes in DMEM+10% calf serum. For each transfection 1 μg of pSV2neo and 10 μg of a pCMV construct (pCMV, pCMV:TK-wrong (HSVTK in the wrong orientation relative to the promoter), pCMV:HSVTK, pCMV:30, pCMV:75 or pCMV:132 DNA) in 0.25M CaCl2 are mixed with 0.5 ml 2×BBS (see Chen and Okayama) and preincubated at 37° C. at 2.5% CO2 […]. The CaCl2/DNA mix is added dropwise to the plates and mixed in well. After a 24 hour incubation at 37° C. in a 2.5% CO2 wet incubator, the cells are rinsed twice with Dulbecco PBS minus Ca/Mg and fed with fresh DMEM+10% calf serum. Plates are incubated at 37° C. with 6% CO2. After 72 hours post-transfection the cells are split 1:3 and plated in DMEM+10% calf serum containing G418 at 600 μg/ml.
The cells are selected on G418 (600 μg/ml) at 37° C. for 17 days. During this time the plates are pooled (for each DNA transfection) and split three times at a ratio of 1:3. Approximately 30-40 clones are selected in this manner for each transfected DNA containing a tk gene in the correct orientation. The pCMV and pCMV:TK-wrong transfections yielded between 130 and 140 clones each. […]
Determination of the fluorescence level of cells incubated in the presence of Alamar Blue directly relates to cell viability.

[1] = Enzyme kinetics of purified TK, thymidine; assay type: biochemical; conditions: substrate thymidine
Experimental: (§1) A single colony of pET23d:HSVTK, pET23d:30, pET23d:75 and pET23d:132 in BL21(DE3)tk^− cells is used to inoculate 5 ml of M9ZB medium (1% tryptone, 0.5% NaCl, 1×M9 salts, 1 mM MgSO4, 100 μM CaCl2 and 0.2% glucose) containing cabenicillin at 20 μg/ml. The culture is incubated at 37° C. overnight. The following day the 5 ml culture is used to inoculate 1L M9ZB+cabenicillin at 20 μg/ml and the culture allowed to grow at 37° C. to OD600 0.1. At that point IPTG is added to 0.4 mM and the culture incubated a further 3 hours. The cells are chilled on ice, pelleted by centrifugation and the pellets washed once in cell wash buffer (50 mM Tris, pH 7.5, 5mM EDTA, 10% sucrose) prior to freezing the pellets at −70° C. […]
(§2) A thymidylyl-sepharose column is used for a one step purification procedure (see Example 2). […] The extent of purification is monitored by Coomassie stained SDS:PAGE analysis and the concentration of purified protein determined using the BioRad Reagent (Bradford Reagent). […]
(§3) The kinetics of thymidine, ganciclovir and acyclovir phosphorylation by the wild-type, mutant 30 and 75 thymidine kinase enzymes with variant concentrations of radioactive nucleoside substrate are determined essentially as described in Example 3. Km and Vmax values are determined from double reciprocal plots and kcat values are calculated using the equation Vmax=kcat [Eo] where [Eo] is the total enzyme concentration. […]

[2] = Enzyme kinetics of purified TK, ganciclovir; assay type: biochemical; conditions: substrate ganciclovir
Experimental: as §1, §2, §3

BHK tk− cells = test: Sensitivity of guanylate kinase transfectant pools to ACV in TK expressing clones; assay type: cell-based, baby hamster; conditions: three days with ACV
Experimental: pREP8-7, pREP8-7:hgmk and pREP8-7:mgmk are used to transfect BHK tk, TK-transfected clone C3 and 75-transfected clone D4. Histidinol is used to select pools of stable transfectants and to isolate individual clones.
As in Example 8, pools of transfectants are placed in 96 well microtiter dishes at 1000 cells/well. Eight replicates are incubated for three days in the presence of various GCV or ACV concentrations.

Molecule: WT: wild-type HSV-1 thymidine kinase with McKnight sequence (pT7:HSVTKII and derived vectors)
- EC50 (ts13 BHK tk− cells; read-out: ED50 ACV): 25 µM
- EC50 (ts13 BHK tk− cells; read-out: ED50 GCV): 20 µM
- Km [1]: 0.38 µM
- kcat ([1]; per active site): .230 s⁻¹
- Km [2]: 47.6 µM
- kcat ([2]; per active site): .050 s⁻¹

B1: Guanylate kinase: human or murine guanylate kinase expressed from pREP8-7 in wild-type TK clone C3 cells (protein, UniProt Q16774 2-197, looked up)
Guanylate kinase: SGPRPVVLSGPSGAGKSTLLKRLLQEHSGIFGFSVSHTTRNPRPGEENGKDYYFVTREVMQRDIAAGDFIEHAEFSGNLYGTSKVAVQAVQAMNRICVLDVDLQGVRNIKATDLRPIYISVQPPSLHVLEQRLRQRNTETEESLVKRLAAAQADMESSKEPGLFDVVIINDSLDQAYAELKEALSEEIKKAQRTGA
- increased sensitivity to ACV relative to TK expression alone (BHK tk− cells): approximately 2 fold
